Reference: patent US20250339569A1, “CARBONIC ANHYDRASE IX LIGANDS” (priority 2021, published 2025)

Legend:
[1] = biological target: murine carbonic anhydrase 9 (CAIX) (mouse) (UniProt Q8VHB5); assay: radioligand saturation binding on CHO-msCAIX cells, 8 h at 37 °C, experiment i
[2] = biological target: murine carbonic anhydrase 9 (CAIX) (mouse) (UniProt Q8VHB5); assay: radioligand saturation binding on CHO-msCAIX cells, 8 h at 37 °C, single experiment

Sequence of murine carbonic anhydrase 9 (CAIX) (mouse) (Q8VHB5 32-437 limits assumed): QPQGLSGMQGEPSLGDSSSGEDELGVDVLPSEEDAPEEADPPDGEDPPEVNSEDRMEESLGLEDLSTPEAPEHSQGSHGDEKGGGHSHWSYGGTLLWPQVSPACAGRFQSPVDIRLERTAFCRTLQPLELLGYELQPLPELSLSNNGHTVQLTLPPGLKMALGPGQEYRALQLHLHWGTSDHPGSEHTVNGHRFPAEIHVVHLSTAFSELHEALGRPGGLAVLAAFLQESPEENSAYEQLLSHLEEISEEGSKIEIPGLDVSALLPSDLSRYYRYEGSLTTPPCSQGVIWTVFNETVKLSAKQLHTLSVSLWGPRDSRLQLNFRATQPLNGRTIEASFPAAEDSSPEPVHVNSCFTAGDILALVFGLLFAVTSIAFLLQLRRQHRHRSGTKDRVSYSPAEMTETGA

- Bmax [1]: 5.6 fmol/µg prot
- pKd [1]: 7.2 -log10(M)
- Mean Bmax [2]: 5.6 fmol/µg prot
Substance: [^111In]In-DPI-4452 (peptide)
